Experiment [1] concerns the target T1, Cen B (Homo sapiens (assumed), UniProt P07199).
T1 construct: Cen B autoantigen (centromere protein B) of the autoantigen ELISA
In words: ELISA; autoantigen ELISA (legend: Athena autoantigen assay); antigens coated at 20 µg/ml overnight at 4°C; Abs in serial dilutions 45 min at RT; HRP anti-human IgG, TMB, 450 nm. The note with it: both partners purified.

The target in experiment [2] is T2, host protein UBE3A (Abcam), coupled to Luminex beads, Q05086.
T2 chain: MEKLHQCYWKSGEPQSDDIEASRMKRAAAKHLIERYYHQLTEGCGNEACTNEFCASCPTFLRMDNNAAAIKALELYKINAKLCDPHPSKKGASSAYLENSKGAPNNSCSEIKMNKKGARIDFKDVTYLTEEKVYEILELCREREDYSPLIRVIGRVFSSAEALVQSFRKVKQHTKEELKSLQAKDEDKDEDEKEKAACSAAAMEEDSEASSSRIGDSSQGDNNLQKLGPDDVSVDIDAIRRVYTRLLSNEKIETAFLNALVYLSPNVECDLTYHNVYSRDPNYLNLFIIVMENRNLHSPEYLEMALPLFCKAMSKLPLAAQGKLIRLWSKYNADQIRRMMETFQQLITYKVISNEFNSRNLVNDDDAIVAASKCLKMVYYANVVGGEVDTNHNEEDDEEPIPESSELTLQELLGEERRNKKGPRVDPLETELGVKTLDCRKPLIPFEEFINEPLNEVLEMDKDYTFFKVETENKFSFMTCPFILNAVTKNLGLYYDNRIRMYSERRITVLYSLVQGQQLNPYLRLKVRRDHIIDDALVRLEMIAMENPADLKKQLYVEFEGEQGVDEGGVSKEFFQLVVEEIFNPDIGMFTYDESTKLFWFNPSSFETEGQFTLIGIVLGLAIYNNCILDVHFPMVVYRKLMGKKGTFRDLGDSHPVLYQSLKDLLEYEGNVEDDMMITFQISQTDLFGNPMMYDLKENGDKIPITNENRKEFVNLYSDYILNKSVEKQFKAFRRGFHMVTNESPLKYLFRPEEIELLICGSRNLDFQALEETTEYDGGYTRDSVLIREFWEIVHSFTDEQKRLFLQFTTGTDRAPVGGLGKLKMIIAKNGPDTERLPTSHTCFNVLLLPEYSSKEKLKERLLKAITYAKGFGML
In words: Luminex bead assay. To be noted: chain shown with the change; left panel; highest antibody concentration plotted, est. 2000 ng/ml; parent: est. 12; read off a plot.

Experiment [3] concerns the target host proteins on the ProtoArray (9,400 human proteins) (human). Description: peptide or protein array; ProtoArray (Invitrogen) with 9,400 human proteins, in duplicate; 2 µg/ml recombinant Ab, 1.5 hours at 4°C; detected with Alexa Fluor 647 anti-human IgG; compared with the control Ab 151K.
The target in experiment [4] is T3, UBE3A on the ProtoArray human protein microarray (Homo sapiens, UniProt Q05086).
T3 construct: UBE3A, one of the 9,400 human proteins on the ProtoArray; source: bought: Invitrogen ProtoArray
The experiment is described as above. To be noted: both partners purified.

The target in experiment [5] is T4, UBE3A on the ProtoArray human protein microarray, Q05086.
T4 chain: T2 chain
In words: ProtoArray protein array. To be noted: chain shown with the change; red circle = UBE3A; x coordinate of the circle; parent: est. 45; read off a plot.

The target in experiment [6] is T5, host protein UBE3A (Abcam), coupled to Luminex beads (Homo sapiens, UniProt Q05086).
T5 construct: UBE3A, host protein; bought from Abcam (printed there as UBE34); also called UBE34; source: bought: Abcam
In words: Luminex bead-based binding assay; UBE3A (Abcam) covalently linked to carboxylated beads; Abs serially diluted 1:3 from 2 µg/ml in PBS with 0.05% NaN3, 0.05% Tween 20, 1% BSA and 1% milk; 2 hours at room temperature; detected with PE goat anti-human IgG. To be noted: both partners purified.

Here are results for two molecules from paper PMC9720396, “Autoreactivity and broad neutralization of antibodies against HIV-1 are governed by distinct mutations: Implications for vaccine design strategies” (Frontiers in Immunology, 2022).

Substitutions are numbered along the chain they refer to. Numbers in names are those of the source.

T1 sequence (P07199 whole entry): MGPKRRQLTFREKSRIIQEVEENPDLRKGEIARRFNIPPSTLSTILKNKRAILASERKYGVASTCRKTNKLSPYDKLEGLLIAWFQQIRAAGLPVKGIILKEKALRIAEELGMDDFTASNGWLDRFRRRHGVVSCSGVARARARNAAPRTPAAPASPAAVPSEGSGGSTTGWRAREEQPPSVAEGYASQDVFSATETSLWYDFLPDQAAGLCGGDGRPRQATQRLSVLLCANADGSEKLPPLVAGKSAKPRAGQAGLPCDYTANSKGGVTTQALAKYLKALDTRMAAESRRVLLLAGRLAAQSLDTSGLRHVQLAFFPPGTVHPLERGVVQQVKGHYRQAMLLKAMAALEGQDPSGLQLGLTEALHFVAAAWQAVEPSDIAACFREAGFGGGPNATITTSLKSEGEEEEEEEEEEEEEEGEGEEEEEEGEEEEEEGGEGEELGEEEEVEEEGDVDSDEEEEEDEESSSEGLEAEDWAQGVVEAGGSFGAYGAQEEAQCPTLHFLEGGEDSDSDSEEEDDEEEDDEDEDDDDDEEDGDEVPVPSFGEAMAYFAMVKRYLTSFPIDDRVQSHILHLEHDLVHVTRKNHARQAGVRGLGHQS

B1: IA2_E64K (antibody, V domains shown)
V domain 1: QVQLQESGPGVVKSSETLSLTCTVSGGSMGGTYWSWLRLSPGKGLEWIGYIFHTGHTNYNPSLKGRVSISVDTSEDQFSLRLRSVTAADTAVYFCASLPRGQLVNAYFRNWGRGTLVSVTA
V domain 2: SYELTQPPSVSVSPGQTATITCSGDKVASKNVCWYQVKPGQSPEVVMYENYKRPSGIPDRFSGSKSGSTATLTIRGTQATDEADYYCQVWDSFSTFVFGSGTQVTV
notes: as the heavy chain of m8 (IA2); as the light chain of m8 (IA2); recombinant IgG; also called the E64K mutant; IA2 E64K mutant; source: Expi293, transiently transfected, purified (Protein A agarose)
Take B1: the binding result in experiment [1] is reported as “binds”. The response in experiment [2] came to 2200 gMFI. Moreover, the polyreactivity index (PI) in experiment [3] is 0.14. Moreover, in experiment [4], the “fold higher binding than Abs without E64K” value is around 10 fold.

B2: IA2_N60S (antibody, V domains shown)
V domain 1: B1 V domain 1 with N60S, K64E
V domain 2: B1 V domain 2
notes: as the heavy chain of m8 (IA2); as the light chain of m8 (IA2); recombinant IgG; also called the N60S mutant; IA2 N60S mutant; source: Expi293, transiently transfected, purified (Protein A agarose)
B2: the response came to 8.5 gMFI in experiment [2] and 45 MFI in experiment [5]. The binding result in experiment [6] was “no binding (tested: 2 µg/ml)”.
